The results in this text go back to patent US20240343811A1 (SHANDONG SIMCERE BIOPHARMACUTICAL, published 2024).

Changes are numbered by the printed parent chain. Like-named read-outs stand apart in the source and are kept apart here.

Experiment [1] addresses T1, human CD16a (158F), full length, on FlpinCHO cells (human, UniProt P08637 17-254). Nature of the experiment: FACS on FlpinCHO cells. In a few lines:
(§1)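 EC50 comes from fitted concentration–MFI curves. Antibody dilutions were bound to the cells for 1 hour on ice in PBS blocking buffer with 2% BSA, followed by washing and flow cytometric readout.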

Experiment [2] has as its target T2, human CD16a (158V), full length, on cells (human, UniProt P08637 17-254).
T2 construct: also used as target for the bought Jurkat-NFAT reporter line stably expressing human CD16a (158V); also called FlpinCHO-human CD16a (158V); FlpinCHO-CD16a (158V)
In words: FACS on FlpinCHO cells. In a few lines: as §1

In experiment [3] the target is T3, human CD16b (NA1), full length, on FlpinCHO cells (human, UniProt O75015 17-200).
T3 construct: also called FlpinCHO-human CD16b (NA1)
T3 chain: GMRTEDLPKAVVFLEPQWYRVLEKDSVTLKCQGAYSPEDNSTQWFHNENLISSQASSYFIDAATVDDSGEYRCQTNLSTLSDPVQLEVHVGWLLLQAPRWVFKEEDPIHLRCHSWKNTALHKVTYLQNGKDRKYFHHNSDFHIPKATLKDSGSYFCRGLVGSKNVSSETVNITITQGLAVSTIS
Nature of the experiment: FACS on FlpinCHO cells. In a few lines:
(§2)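 EC50 values come from fitted MFI curves measured by FACS. Antibody dilutions were bound for 1 hour on ice to CD16b-transfected FlpinCHO cells suspended in PBS with 2% BSA blocking solution.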

Experiment [4] concerns the target T4, human CD16b (NA2), full length, on FlpinCHO cells (human, UniProt O75015 17-200).
T4 construct: also called FlpinCHO-human CD16b (NA2)
T4 chain: T3 chain with R20S, N49S, D66N, V90I
In words: FACS on FlpinCHO cells. The method in brief: as §2

Experiment [5] concerns the target T5, cynomolgus monkey CD16, full length, on FlpinCHO cells (cynomolgus monkey, UniProt Q8SPW2 17-254).
T5 construct: also called FlpinCHO-cyno CD16; Flipin CHO-cyno CD16
In words: FACS on FlpinCHO cells. As to the method:
(§3) The required cells were scale-up cultured in a T-75 cell culture flask to the logarithmic growth phase. The medium was aspirated, and the cells were washed twice with a PBS buffer and then digested with trypsin. After the digestion was terminated, the cells were washed twice with the PBS buffer. The cells were counted, and then the cell pellet was resuspended with a [PBS+2% (w/w) BSA] blocking solution to 2×10⁶ cells/ml, and added to a 96-well FACS reaction plate at 50 μl/well. […] 50 μl/well of the antibody to be detected was added at different concentrations, and incubated on ice for 1 hour. […] The mixture was centrifuged and washed 5 times with PBS, and FACS (FACS Canto II, purchased from BD Company) was used for detection and result analysis. Data analysis was performed by software (CellQuest) to obtain the mean fluorescence intensity (MFI) of the cells. Then, software (GraphPad Prism8) was used for analysis, data fitting and EC50 value calculation.
(§4) Flipin CHO-cyno CD16 cells were subjected to FACS detection and data analysis according to the method of Example 3.1.

Experiment [6] addresses T2, human CD16a (158V), full length, on …. Nature of the experiment: cell-based or functional assay.
The target of experiment [7] is T1, human CD16a (158F), full length, on …. Nature of the experiment: FACS, biotinylated antibody. Background: Flow cytometry measures light scatter and fluorescence of single cells or particles in a stream.
Experiment [8] deals with T2, human CD16a (158V), full length, on …. Nature of the experiment: FACS, biotinylated antibody.
The target in a further experiment is T6, Human CD16a (158F)-his (human).
T6 construct: entry holds ECD, AVI tag, linker and His tag
Nature of the experiment: SPR (Biacore), antibody captured on Protein A. In a few lines: (§5)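 Protein A–captured antibody was probed with CD16-his ECD in HBS-EP+ at 25 °C: five 2-fold dilutions from 200 nM, 240 s at 30 μL/min, dissociation up to 600 s. Glycine pH 1.5 regenerated the chip. Apparent KD came from a double-referenced 1:1 Langmuir fit.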
For orientation: Surface plasmon resonance follows binding to a sensor surface in real time, without labels.

The next experiment has as its target T7, Human CD16a (158V)-his (human).
T7 construct: entry holds ECD, AVI tag, linker and His tag
In words: SPR (Biacore), antibody captured on Protein A. In a few lines: as §5

Experiment [9] concerns the target T1, human CD16a (158F), full length, on …. In words: FACS, biotinylated antibody, +10 mg/mL human immunoglobulin.
Experiment [10] addresses T2, human CD16a (158V), full length, on …. The experiment is described as above.
Experiment [11] has as its target T1, human CD16a (158F), full length, on …. In words: FACS on FlpinCHO cells. This is another data set of the same source.
The target of experiment [12] is T2, human CD16a (158V), full length, on …. Nature of the experiment: FACS on FlpinCHO cells. This is another data set of the same source.
Experiment [13] concerns the target T3, human CD16b (NA1), full length, on …. In words: FACS on FlpinCHO cells. In a few lines:
as §2

Experiment [14] concerns the target T4, human CD16b (NA2), full length, on …. Nature of the experiment: FACS on FlpinCHO cells. The method in brief:
as §2

The target in experiment [15] is T5, cynomolgus monkey CD16, full length, on …. Nature of the experiment: FACS on FlpinCHO cells. As to the method: as §3, §4
The source holds these as a separate data set.

Experiment [16] deals with T2, human CD16a (158V), full length, on …. Nature of the experiment: cell-based or functional assay. The source holds these as a separate data set.
Experiment [17] deals with T8, CD16 on primary human NK cells (human, UniProt P08637 17-254).
T8 construct: whole, on cells; also called resting NK cells
Nature of the experiment: FACS on human NK cells. The method in brief: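 EC50 came from curve fitting of flow-cytometric MFI. Antibody titrations were bound for 1 hour on ice to fresh human NK cells blocked in PBS with 2% (w/w) BSA (2×10⁶ cells/ml), followed by five PBS washes before acquisition.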

T5 sequence (Q8SPW2 other isoform, or with tags, fused parts or gaps limits assumed): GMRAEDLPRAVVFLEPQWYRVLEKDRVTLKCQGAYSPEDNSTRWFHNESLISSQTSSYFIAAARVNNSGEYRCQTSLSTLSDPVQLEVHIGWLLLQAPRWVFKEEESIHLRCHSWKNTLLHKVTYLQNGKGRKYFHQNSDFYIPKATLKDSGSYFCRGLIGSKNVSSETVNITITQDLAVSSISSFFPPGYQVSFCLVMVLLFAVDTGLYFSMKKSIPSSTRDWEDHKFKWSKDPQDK

B1: VHH02 VHH-Fc antibody (Fc fusion)
chain: EVQLVESGGGLVQAGGSLRLSCATSGITFSSYAMGWYRQAPGKQRELVAGINRFGLTNYADSVKGRFTISRDNAKNTVYLQMTSLKSEDTAVYYCNTGGVYSHPNYYTGIYWGQGTQVTVSSEPKSSDKTHTCPPCPAPEFEGGPSVFLFPPKPKDTLMISRTPEVTCVVVAVSHEDPEVKFNWYVDGVEVHNAKTKPREEQYNSTYRVVSVLTVLHQDWLNGKEYKCKVSNKALPAPIEKTISKAKGQPREPQVYTLPPSREEMTKNQVSLTCLVKGFYPSDIAVEWESNGQPENNYKTTPPVLDSDGSFFLYSKLTVDKSRWQQGNVFSCSVMHEALHNHYTQKSLSLSPGK
As for B1, the concentration giving a half-maximal response (EC50) (commonly the midpoint of the concentration-response curve) in experiment [1] turned out to be 1.17 nM; in experiment [2], 0.3 nM; in experiment [3], 4.27 nM; in experiment [4], 5.45 nM; in [5] it was 0.88 nM; in experiment [7], 0.33 nM. For the same molecule, the concentration giving a half-maximal response (EC50) in experiment [8] came to 0.33 nM; in experiment [9] it was 1.21 nM; in [10], 1.18 nM. For the same molecule, the “Maximum mean fluorescence intensity” value in experiment [1] was 5210; in [2] it was 6000; in experiment [3] it was 31900; in experiment [4], 52400; in [5] it was 17100; in experiment [7] it was 6310. Further, the figures for the “Maximum mean fluorescence intensity” value in [8], in experiment [9] and in experiment [10] were 7300, 6020 and 7660, respectively. For the same molecule, the “EC50, activation activity for Jurkat cell” value (“EC50, activation activity” for short) in experiment [6] amounted to 0.3 nM. In addition, the Maximum fluorescence value in [6] was determined as 178000. Also, the Kd – broadly, the free concentration of one partner at which half of the binding sites on the other are occupied at equilibrium, for simple one-to-one binding – with Human CD16a (158F)-his was 132 nM; in the experiment with Human CD16a (158V)-his it was 96.5 nM. Besides, the figures for the koff with Human CD16a (158F)-his and with Human CD16a (158V)-his were 0.027 s⁻¹ and 0.0179 s⁻¹, respectively. Also, the on-rate constant (kon) (commonly the rate constant with which the complex forms) worked out at 205000 M⁻¹ s⁻¹ in the experiment with Human CD16a (158F)-his and 186000 M⁻¹ s⁻¹ with Human CD16a (158V)-his.

B2: VHH12-08 humanized VHH-Fc antibody (Fc fusion)
chain: EVQLVESGGGLVQPGGSLRLSCAASGITFSSYAMGWYRQAPGKQRELVAAINRFGLTNYADFVKGRFTISRVNAKNSLYLQMNSLRAEDTAVYYCNTGGVYSHPDYYTGTYWGQGTMVTVSSEPKSSDKTHTCPPCPAPEEFGGPSVFLFPPKPKDTLMISRTPEVTCVVVAVSHEDPEVKFNWYVDGVEVHNAKTKPREEQYNSTYRVVSVLTVLHQDWLNGKEYKCKVSNKALPAPIEKTISKAKGQPREPQVYTLPPSREEMTKNQVSLTCLVKGFYPSDIAVEWESNGQPENNYKTTPPVLDSDGSFFLYSKLTVDKSRWQQGNVFSCSVMHEALHNHYTQKSLSLSPGK
As to B2, in experiment [11], the EC50 is 0.31 nM and the “Maximum mean fluorescence intensity” value was 9010. Also, in [12], the EC50 worked out at 0.32 nM and the “Maximum mean fluorescence intensity” value was 7920. Moreover, in experiment [13], a half-maximal response (EC50) required 0.98 nM and the “Maximum mean fluorescence intensity” value turned out to be 52100. Also, in [14], the “Maximum mean fluorescence intensity” value amounted to 77300. Moreover, in experiment [15], the EC50 was 0.44 nM and the “Maximum mean fluorescence intensity” value was 18300. In experiment [16], the “EC50, activation activity” value was 0.01 nM and the Maximum fluorescence value was 142000. Further, in the experiment with Human CD16a (158F)-his, binding was characterised by a dissociation constant (Kd) of 48.6 nM; the koff – broadly, a measure of how fast the partners let go of each other – came to 0.0294 s⁻¹; the association rate constant (kon) is 605000 M⁻¹ s⁻¹.

B3: VHH14 VHH-Fc antibody (Fc fusion)
chain: B1 chain with T24A, G35A, A40D, G50A, Q81E, S87P, I110T
On to B3, for which the EC50 is 0.23 nM in [1]; 0.27 nM in [2]; 0.93 nM in experiment [3]; 1.44 nM in experiment [4]; 0.17 nM in experiment [17]; 0.18 nM in experiment [5]. Also, the EC50 in [7] turned out to be 0.27 nM; in experiment [8], 0.38 nM; in experiment [9], 0.91 nM; in experiment [10], 1.1 nM. Further, the “Maximum mean fluorescence intensity” value in experiment [1] was found to be 5750; in experiment [2], 6250; in experiment [3], 41900; in experiment [4], 61400; in experiment [17] it was 2620; in experiment [5] it was 16400. In addition, the “Maximum mean fluorescence intensity” value in experiment [7] amounted to 5510; in experiment [8], 8180; in experiment [9], 5070; in experiment [10] it was 7900. The “EC50, activation activity” value in experiment [6] is 0.02 nM. In experiment [6], this molecule registered a Maximum fluorescence value of 169000. Besides, the dissociation constant (Kd) with Human CD16a (158F)-his is 25 nM; with Human CD16a (158V)-his, 19.3 nM. For the same molecule, the results for the koff in the experiment with Human CD16a (158F)-his and with Human CD16a (158V)-his were 0.0296 s⁻¹ and 0.0602 s⁻¹, respectively. For the same molecule, the kon worked out at 1.18e+06 M⁻¹ s⁻¹ with Human CD16a (158F)-his and 3.12e+06 M⁻¹ s⁻¹ with Human CD16a (158V)-his.

B4: VHH12-03 humanized VHH-Fc antibody (Fc fusion)
chain: B2 chain with A60V, F62S, V72D
Turning to B4, the EC50 in [11] was 0.48 nM; in [12], 0.48 nM; in experiment [13], 1.37 nM; in [15], 0.8 nM. Moreover, the “Maximum mean fluorescence intensity” value in [11] is 8810; in experiment [12], 7750; in experiment [13] it was 47300; in experiment [14] it was 72700; in [15], 18000. Also, the “EC50, activation activity” value in experiment [16] turned out to be 0.02 nM. In experiment [16], this molecule gave a Maximum fluorescence value of 155000. The molecule further came in with a Kd in the experiment with Human CD16a (158F)-his of 55.7 nM. Further, the koff in the experiment with Human CD16a (158F)-his worked out at 0.0244 s⁻¹. The kon with Human CD16a (158F)-his is 438000 M⁻¹ s⁻¹.

B5: VHH12-02 humanized VHH-Fc antibody (Fc fusion)
chain: B2 chain with N58Y, A60V, F62S, V72D
B5: in [11], the EC50 was found to be 0.46 nM and the “Maximum mean fluorescence intensity” value was 7440. Further, in [12], the EC50 worked out at 0.45 nM and the “Maximum mean fluorescence intensity” value worked out at 6600. In [13], the response was half-maximal at 0.94 nM (EC50) and the “Maximum mean fluorescence intensity” value worked out at 39700. The “Maximum mean fluorescence intensity” value in experiment [14] is 73300. Besides, in experiment [15], it took 0.74 nM to reach a half-maximal effect (EC50) and the “Maximum mean fluorescence intensity” value was determined as 16900. In [16], the “EC50, activation activity” value was determined as 0.01 nM and the Maximum fluorescence value is 148000. In the experiment with Human CD16a (158F)-his, this molecule registered a dissociation constant Kd of 75.1 nM, an off-rate (koff) of 0.0237 s⁻¹ and a kon of 316000 M⁻¹ s⁻¹.
